The record followed here is patent US20060257366A1.

The target of the assay is CH-296 retronectin fragment (UniProt P02751). The experiment in a line: cell-based or functional assay.
Sequence of UniProt P02751 (P02751 1361-2107): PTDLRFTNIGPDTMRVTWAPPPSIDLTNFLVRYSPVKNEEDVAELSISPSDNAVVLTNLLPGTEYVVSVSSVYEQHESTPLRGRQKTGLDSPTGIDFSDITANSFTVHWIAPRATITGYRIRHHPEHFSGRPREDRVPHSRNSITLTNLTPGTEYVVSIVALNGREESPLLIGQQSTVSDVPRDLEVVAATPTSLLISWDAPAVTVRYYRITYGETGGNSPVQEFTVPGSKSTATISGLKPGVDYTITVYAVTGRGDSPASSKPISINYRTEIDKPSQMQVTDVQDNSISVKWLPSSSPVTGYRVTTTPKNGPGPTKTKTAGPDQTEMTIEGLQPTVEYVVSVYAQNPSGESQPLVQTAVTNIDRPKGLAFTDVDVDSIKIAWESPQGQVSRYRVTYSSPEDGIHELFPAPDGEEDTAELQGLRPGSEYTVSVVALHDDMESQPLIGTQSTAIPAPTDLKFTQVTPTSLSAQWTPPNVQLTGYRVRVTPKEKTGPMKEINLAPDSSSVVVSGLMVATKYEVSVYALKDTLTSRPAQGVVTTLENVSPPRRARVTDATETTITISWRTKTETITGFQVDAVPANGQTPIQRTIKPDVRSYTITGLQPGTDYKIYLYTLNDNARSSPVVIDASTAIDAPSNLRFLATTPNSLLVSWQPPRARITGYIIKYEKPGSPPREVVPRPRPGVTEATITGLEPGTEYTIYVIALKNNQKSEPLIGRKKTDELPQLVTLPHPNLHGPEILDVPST

RD114/TR chimeric glycoprotein gave a transduction efficiency of human CD34+ cells on retronectin-coated plates (% GFP+ cells) of 10 fold.
